Reference: patent publication US20240299596A1, “METHODS AND MATERIALS FOR COMBINING BIOLOGICS WITH MULTIPLE CHELATORS” (priority 2021, published 2024)

Columns and labels:
[1] = Stability of ^64Cu-Conjugate 2 over time by TLC; type: physicochemical; conditions: silica gel, 0.1M sodium citrate
Experimental: The Conjugate-1 was radiolabeled with Cu-64 using [^64Cu]CuCl2 produced from cyclotron and formulated in 0.1M hydrochloric acid. Different amounts (50 μg, 100 μg) of Conjugate-1 were used and the pH was adjusted to 5.0 using 0.1M sodium acetate after addition of [^64Cu]CuCl2. The resultant reaction mixture was stirred at room temperature for different durations as 10 minutes, 20 minutes, 30 minutes, and 40 minutes to optimize radiolabeling yield with reaction time. The progress and yield of the reactions were monitored by radioactive thin layer chromatography (r-TLC) using iTLC (silica gel coated on paper, Agilent Technologies Inc., Santa Clara, CA) and 0.1M sodium citrate as a mobile phase. In this r-TLC condition, unconjugated (Free)^64Cu moves to the solvent front of the r-TLC and radiolabeled ^64Cu-Conjugate-1 stays at the origin of the r-TLC plate. Based on our tested radiolabeling condition, the reaction achieved >99% yield radiolabeling in 10 minutes and at all other time points at pH 5.0 using sodium acetate as a reaction buffer via stirring at room temperature. Formation of radiolabeled ^64Cu-Conjugate-1 was also confirmed by radio HPLC.
The TLC was performed with a silica gel solid phase and 0.1M sodium citrate mobile phase.
The stability of the ^64Cu-Conjugate 2 was also analyzed by TLC using the same TLC method as the ^64Cu-Conjugate 1 at various time points. The time points included: 40 minutes (Table 31 and FIG. 26), 2 hours (Table 32 and FIG. 27), 4 hours (Table 33 and FIG. 28), 8 hours (Table 34 and FIG. 29).

in vitro = in vitro ADME, mouse
Experimental: The stability of the ^64Cu-Conjugate 2 was tested in mouse serum and human serum at 37° C. using the Rad-iTLC method. Approximately 1.0 mL of mouse serum was extracted from blood of the mice and ˜1.0 mL of human serum was extracted from blood obtained from the Mayo Clinic's blood bank to measure the stability of radiolabeled ^64Cu-Conjugate 2. Obtained mouse and human serums were distributed separately in 100 μL aliquots in 1.5 mL microcentrifuge tubes (n=3). To which, 20 μL of ^64Cu-Conjugate2 was added in each 100 μL serum aliquot and mixed thoroughly. From this mixture, a small amount of reaction mixture was taken out using glass capillary tube and immediately spotted on an iTLC plate for analysis as T=0 timepoint (n=3). The rest of the reaction mixtures were incubated at 37° C. for up to 2 hours and small fractions were taken out at 1 hour and 2 hours post incubation to analyze the stability of ^64Cu-Conjugate 2 over time using radioactive thin layer chromatography (r-TLC). To do r-TLC analysis, iTLC (silica gel coated on paper, Agilent Technologies Inc., Santa Clara, CA) was used as a solid phase and 0.1M sodium citrate as a mobile phase. In this r-TLC condition, unconjugated (free)^64Cu moves to the solvent front of the r-TLC and radiolabeled ^64Cu-Conjugate 2 stays at the origin of the r-TLC plate. Based on the relative % of radioactivity at origin and at the solvent front, the % of intact ^64Cu-Conjugate2 and free ^64Cu was measured as presented in Tables 35 and 36.

[2] = Micro PET imaging and ex-vivo biodistribution (SUV) in normal nude mice; design: species or system normal nude mice (strain: 002019, NU/J); conditions: mouse
Source text: in accordance with Loening AM and Gambhir SS. […] Mol Imaging 2003; 2:131-7.

[3] = Stability of ^64Cu-Conjugate 2 over time by HPLC; type: physicochemical
Experimental: The method used a Schmadzu HPLC system, which was equipped with dual UV and radioactivity detectors. […] Conjugate 2 was tested with varying concentrations (Table 18A below). […] For analysis, the compound was dissolved in water and a calibration curve was prepared to estimate the specific activity of the synthesized compound. Depending upon the chemical nature of the compound a different retention time was observed.
The stability of the ^64Cu-Conjugate 2 was tested using the same HPLC method as the Conjugate 2 at various time points. The time points included: 40 minutes (Tables 23-24 and FIG. 22), 2 hours (Tables 25-26 and FIG. 23), 4 hours (Tables 27-28 and FIG. 24), and 8 hours (Tables 29-30 and FIG. 25).

NC(=O)CN1CCN(CC(N)=O)CCN(CC(N)=O)C(Cc2ccc(NC(=S)NCCN(CCNC(=S)Nc3ccc(CC4CN(CC(=O)O)CCN(CC(=O)O)CCN4CC(=O)O)cc3)C(=O)Cc3ccc(NC(=S)NCCCC[C@H](NC(=O)N[C@@H](CCC(=O)O)C(=O)O)C(=O)O)cc3)cc2)CN(CC(N)=O)CC1 (some centres unmarked) [^64Cu-Conjugate 2, metal not drawn]
% of ROI, Rgn 1 (origin, radiolabeled conjugate) ([1]; 40 minutes): 99.62%
% of ROI, Rgn 2 (solvent front, free ^64Cu) ([1]; 40 minutes): 0.38%
% of ROI, Rgn 1 (origin, radiolabeled conjugate) ([1]; 2 hours): 99.40%
% of ROI, Rgn 2 (solvent front, free ^64Cu) ([1]; 2 hours): 0.60%
% of ROI, Rgn 2 (solvent front, free ^64Cu) ([1]; 4 hours): 0.36%
% of ROI, Rgn 1 (origin, radiolabeled conjugate) ([1]; 8 hours): 99.19%
% of ROI, Rgn 2 (solvent front, free ^64Cu) ([1]; 8 hours): 0.81%
Intact (%), Average (in vitro): 98.26%
Stability in mouse serum (in words) (in vitro): stable up to 2 hours in mouse serum
remaining at 1 h (in vitro; mouse, serum): 96.8%
remaining at 2 h (in vitro; mouse, serum): 97.6%
Site of accumulation in PET image [2]: accumulates in proximal tubules in the kidney
% Conc. of main HPLC peak ([3]; 40 minutes, Table 23 trace, peak at Ret. Time 9.335): 99.894%
% Conc. of main HPLC peak ([3]; 40 minutes, Table 24 trace, peak at Ret. Time 8.609): 98.297%
% Conc. of main HPLC peak ([3]; 2 hours, Table 25 trace, peak at Ret. Time 9.298): 99.770%
% Conc. of main HPLC peak ([3]; 2 hours, Table 26 trace, peak at Ret. Time 8.572): 98.718%
% Conc. of main HPLC peak ([3]; 4 hours, Table 27 trace, peak at Ret. Time 9.286): 99.463%
% Conc. of main HPLC peak ([3]; 4 hours, Table 28 trace, peak at Ret. Time 8.555): 98.453%
% Conc. of main HPLC peak ([3]; 8 hours, Table 29 trace, peak at Ret. Time 9.359): 99.107%
% Conc. of main HPLC peak ([3]; 8 hours, Table 30 trace, peak at Ret. Time 8.562): 98.173%
